From patent US20120058906A1 (published 2012)
Each block holds one binder with its values, some of them ahead of it.

What was measured:
[1] = target: T1, Recombinant Human DLL4 (R&D Systems Cat#1506-D4/CF) (human, UniProt Q9NR61 27-524); experiment: ECL (MSD multi-spot), antigen spotted on plate; Fab 44.1 nM; blank spot 200
T1 construct: Bought reagent; also called delta-like protein 4

[2] = target: T2, rHuman ErbB2/Fc Chimera, CF (R&D Systems Cat#1129-ER) (human, UniProt P04626 23-652); experiment: as above
T2 construct: Bought reagent; also called HER2/neu; human epidermal growth factor 2 receptor; Fc part of the bought chimera not given

[3] = target: T3, rHuman CD44/Fc Chimera, CF (R&D Systems Cat#3660-CD) (human, UniProt P16070 21-220); experiment: as above
T3 construct: Bought reagent; Fc part of the bought chimera not given

[4] = target: T4, rHuman EGF R/Fc Chimera, CF (R&D Systems Cat#344-ER) (human, UniProt P00533 25-645); experiment: as above
T4 construct: Bought reagent; also called epidermal growth factor receptor; Fc part of the bought chimera not given

[5] = target: T5, rHuman P-Cadherin/Fc Chimera, CF (R&D Systems Cat#861-PC) (human, UniProt P22223 108-654); experiment: as above
T5 construct: Bought reagent; also called CDH3; Fc part of the bought chimera not given

[6] = target: T6, rHuman Notch-1/Fc Chimera, CF (R&D Systems Cat#3647-TK) (human, UniProt P46531 19-526); experiment: as above
T6 construct: Bought reagent; Fc part of the bought chimera not given

[7] = target: T7, rHuman HGF R/c-MET/Fc Chimera, CF (R&D Systems Cat#358-MT/CF) (human, UniProt P08581 25-932); experiment: as above
T7 construct: Bought reagent; also called HGF R/Fc; hepatocyte growth factor receptor; Fc part of the bought chimera not given

[8] = target: T8, rHuman Erythropoietin R/Fc Chimera, CF (R&D Systems Cat#963-ER) (human, UniProt P19235 25-250); experiment: as above
T8 construct: Bought reagent; also called EPO R/Fc; Epo R; Fc part of the bought chimera not given
T8 sequence: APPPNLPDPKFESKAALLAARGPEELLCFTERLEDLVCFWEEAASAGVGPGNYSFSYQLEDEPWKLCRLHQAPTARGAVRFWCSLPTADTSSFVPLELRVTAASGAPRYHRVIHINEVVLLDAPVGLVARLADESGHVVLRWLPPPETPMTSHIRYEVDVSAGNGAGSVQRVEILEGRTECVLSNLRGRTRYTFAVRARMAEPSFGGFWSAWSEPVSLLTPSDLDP

[9] = target: T9, rHuman IGF-1 sR (IGF-1 sR), CF (R&D Systems Cat#391-GR) (human, UniProt P08069 31-932); experiment: as above
T9 construct: Bought soluble receptor; also called insulin-like growth factor-1 soluble receptor; IGF-R1

[10] = target: T10, rHuman IGF-1 sR (insulin-like growth factor-1 soluble receptor), CF (R&D Systems Cat#391-GR) (human, UniProt P08069 31-932); experiment: ECL (MSD multi-spot), antigen on plate, Fab 10 nM
T10 construct: Bought soluble receptor; also called IGF-R1

[11] = target: T11, Recombinant Human DLL4 (R&D Systems Cat#1506-D4/CF) (human, UniProt Q9NR61 27-524); experiment: ECL (MSD multi-spot), antigen on plate, Fab 10 nM
T11 construct: Bought recombinant protein; also called delta-like protein 4

[12] = target: T12, rHuman Erythropoietin R/Fc Chimera, CF (R&D Systems Cat#963-ER) (human, UniProt P19235 25-250); experiment: ECL (MSD multi-spot), antigen on plate, Fab 10 nM
T12 construct: Bought Fc chimera; also called EPO R/Fc; Epo R; not shown: Fc of the bought chimera
T12 sequence: T8 sequence

[13] = target: T13, rHuman ErbB2/Fc Chimera, CF (R&D Systems Cat#1129-ER) (human, UniProt P04626 23-652); experiment: ECL (MSD Multi-Spot) binding assay, antigen spotted on plate; Fab 51 nM; blank spot 335
T13 construct: Bought Fc chimera; also called HER2/neu; human epidermal growth factor 2 receptor; Fc part of the bought chimera not given

[14] = target: T14, rHuman IGF-1 sR (IGF-1 sR), CF (R&D Systems Cat#391-GR) (human, UniProt P08069 31-932); experiment: as above
T14 construct: Bought soluble receptor; also called insulin-like growth factor-1 soluble receptor; IGF-R1

[15] = target: T15, rHuman CD44/Fc Chimera, CF (R&D Systems Cat#3660-CD) (human, UniProt P16070 21-220); experiment: as above
T15 construct: Bought Fc chimera; Fc part of the bought chimera not given

[16] = target: T16, rHuman EGF R/Fc Chimera, CF (R&D Systems Cat#344-ER) (human, UniProt P00533 25-645); experiment: as above
T16 construct: Bought Fc chimera; also called epidermal growth factor receptor; Fc part of the bought chimera not given

[17] = target: T17, Recombinant Human DLL4 (R&D Systems Cat#1506-D4/CF) (human, UniProt Q9NR61 27-524); experiment: as above
T17 construct: Bought recombinant protein; also called delta-like protein 4; rHuman DLL4

[18] = target: T18, rHuman Notch-1/Fc Chimera, CF (R&D Systems Cat#3647-TK) (human, UniProt P46531 19-526); experiment: as above
T18 construct: Bought Fc chimera; Fc part of the bought chimera not given
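Further: blank spot per well as comparator with Hit at signal to blank ratio of 4 or more.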

ECL signal [1]: 388
ECL signal [2]: 347
ECL signal [3]: 302
ECL signal [4]: 428
ECL signal [5]: 343
ECL signal [6]: 331
ECL signal [7]: 336
ECL signal [8]: 2390
ECL signal [9]: 309
B1: Fab VH1-46_IGHD3-10*01_IGHJ4*01 & B3_IGKJ1*01 (Fab, V domains shown)
VH: QVQLVQSGAEVKKPGASVKVSCKASGYTFTSYYMHWVRQAPGQGLEWMGIINPSGGSTSYAQKFQGRVTMTRDTSTSTVYMELSSLRSEDTAVYYCAREYYYGSGSYYNDYFDYWGQGTLVTVSS
VL: not shown
notes: also called IGHV1-46*01

ECL signal [10]: 152 ECL signal
ECL signal [11]: 26900 ECL signal
ECL signal [12]: 392 ECL signal
B2: Fab VH1-46_IGHD6-6*01_IGHJ1*01_S102A_S103P_S104F & L6_IGKJ1*01_S28P (Fab, V domains shown)
VH: QVQLVQSGAEVKKPGASVKVSCKASGYTFTSYYMHWVRQAPGQGLEWMGIINPSGGSTSYAQKFQGRVTMTRDTSTSTVYMELSSLRSEDTAVYYCAREEYAPFSAEYFQHWGQGTLVTVSS
VL: EIVLTQSPATLSLSPGERATLSCRASQPVSSYLAWYQQKPGQAPRLLIYDASNRATGIPARFSGSGSGTDFTLTISSLEPEDFAVYYCQQRSNWPPWTFGQGTKVEIKR
notes: Fab

ECL signal [13]: 1250
ECL signal [14]: 1050
ECL signal [15]: 651
ECL signal [16]: 816
ECL signal [17]: 17000
ECL signal [18]: 685
B3: Fab VH5-51_IGHD5-18*01>3_IGHJ4*01 & V3-4_IGLJ1*01 (Fab, V domains shown)
VH: EVQLVQSGAEVKKPGESLKISCKGSGYSFTSYWIGWVRQMPGKGLEWMGIIYPGDSDTRYSPSFQGQVTISADKSISTAYLQWSSLKASDTAMYYCARRGYSYGYDYFDYWGQGTLVTVSS
VL: QTVVTQEPSFSVSPGGTVTLTCGLSSGSVSTSYYPSWYQQTPGQAPRTLIYSTNTRSSGVPDRFSGSILGNKAALTITGAQADDESDYYCVLYMGSGISYVFGTGTKVTVL
notes: Tested as a Fab made in E. coli; also called IGHV5-51*03
